In patent US20220064329A1 (Novo Nordisk, published 2022) one finds Kd data, which are given here for 21 molecules.

Where a chain is given by its changes, count along the chain named. Names and notes keep the numbering of the source.

First the molecules themselves.
T1: recombinant human activated Factor VII (FVIIa) (human, UniProt P08709 61-212; P08709 213-466, ten glutamate residues of the Gla domain may be gamma-carboxylated)
T1 construct: chains tethered by a disulfide bond; also called Factor VIIa; rFVIIa
T1 sequence 1: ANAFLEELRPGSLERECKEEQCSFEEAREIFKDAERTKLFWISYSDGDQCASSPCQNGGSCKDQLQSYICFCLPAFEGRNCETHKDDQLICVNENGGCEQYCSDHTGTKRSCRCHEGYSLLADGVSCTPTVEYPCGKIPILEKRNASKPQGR
T1 sequence 2: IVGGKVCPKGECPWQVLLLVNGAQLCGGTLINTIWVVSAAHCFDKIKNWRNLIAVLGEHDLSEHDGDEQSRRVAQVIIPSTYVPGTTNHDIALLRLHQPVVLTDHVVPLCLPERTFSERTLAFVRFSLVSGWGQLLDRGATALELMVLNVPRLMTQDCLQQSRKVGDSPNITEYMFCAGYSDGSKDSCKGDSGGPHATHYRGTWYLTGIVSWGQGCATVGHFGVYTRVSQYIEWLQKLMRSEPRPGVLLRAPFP

B1: VH SEQ ID NO 594 / VL SEQ ID NO 382 (antibody, IgG4, V domains shown)
VH: QVQLQESGPGLVKPSDTLSLTCAVSGYSISSDSAWSWIRQPPGKKLEWIGYIQYSGSTNYNPSLKSRVTMSVDTSKNQFSLKLSSVTALDTAVYYCARSVNYYGNSFAVGPWGQGTLVTVSS
VL: EIVLTQSPATLSLSPGERATLSCRASQGLSDYLHWYQQKPGEAPRLLIKYASQPATGIPARFSGSGSGTDFTLTISSLEPEDFAVYYCQNGHSFPLTFGQGTKLEIK
notes: humanized 11F2; IgG4 S228P/kappa
B2: VH SEQ ID NO 610 / VL SEQ ID NO 406 (antibody, IgG4, V domains shown)
VH: B1 VH with D16Q, A23T, Y27G, S30T, K45G, M70I, L89A, P111Y
VL: B1 VL with L29V, H34A, E42Q, Q100A
notes: as for B1
B3: VH SEQ ID NO 594 / VL SEQ ID NO 462 (antibody, IgG4, V domains shown)
VH: B1 VH
VL: B1 VL with L29V, E42Q, Q100A
notes: as for B1
B4: VH SEQ ID NO 602 / VL SEQ ID NO 334 (antibody, IgG4, V domains shown)
VH: B1 VH with D16Q, A23T, Y27G, K45G, M70I, L89A, P111Y
VL: B1 VL with L29I, E42Q
notes: as for B1
B5: VH SEQ ID NO 602 / VL SEQ ID NO 382 (antibody, IgG4, V domains shown)
VH: B1 VH with D16Q, A23T, Y27G, K45G, M70I, L89A, P111Y
VL: B1 VL
notes: as for B1
B6: VH SEQ ID NO 594 / VL SEQ ID NO 486 (antibody, IgG4, V domains shown)
VH: B1 VH
VL: B1 VL with L29V, E42Q, A84G
notes: as for B1
B7: VH SEQ ID NO 602 / VL SEQ ID NO 454 (antibody, IgG4, V domains shown)
VH: B1 VH with D16Q, A23T, Y27G, K45G, M70I, L89A, P111Y
VL: B1 VL with L29V
notes: as for B1
B8: VH SEQ ID NO 610 / VL SEQ ID NO 350 (antibody, IgG4, V domains shown)
VH: B1 VH with D16Q, A23T, Y27G, S30T, K45G, M70I, L89A, P111Y
VL: B1 VL with L29I, E42Q, A51T, Q100A, I106L
notes: as for B1
B9: VH SEQ ID NO 602 / VL SEQ ID NO 318 (antibody, IgG4, V domains shown)
VH: B1 VH with D16Q, A23T, Y27G, K45G, M70I, L89A, P111Y
VL: B1 VL with L29I, A51T
notes: as for B1
B10: VH SEQ ID NO 610 / VL SEQ ID NO 358 (antibody, IgG4, V domains shown)
VH: B1 VH with D16Q, A23T, Y27G, S30T, K45G, M70I, L89A, P111Y
VL: B1 VL with L29I, E42Q, A51T
notes: as for B1
B11: VH SEQ ID NO 610 / VL SEQ ID NO 366 (antibody, IgG4, V domains shown)
VH: B1 VH with D16Q, A23T, Y27G, S30T, K45G, M70I, L89A, P111Y
VL: B1 VL with H34A
notes: as for B1
B12: VH SEQ ID NO 602 / VL SEQ ID NO 390 (antibody, IgG4, V domains shown)
VH: B1 VH with D16Q, A23T, Y27G, K45G, M70I, L89A, P111Y
VL: B1 VL with L29V, H34A
notes: as for B1
B13: VH SEQ ID NO 602 / VL SEQ ID NO 350 (antibody, IgG4, V domains shown)
VH: B1 VH with D16Q, A23T, Y27G, K45G, M70I, L89A, P111Y
VL: B1 VL with L29I, E42Q, A51T, Q100A, I106L
notes: as for B1
B14: VH SEQ ID NO 594 / VL SEQ ID NO 494 (antibody, IgG4, V domains shown)
VH: B1 VH
VL: B1 VL with L29V, E42Q, F83V
notes: as for B1
B15: VH SEQ ID NO 602 / VL SEQ ID NO 366 (antibody, IgG4, V domains shown)
VH: B1 VH with D16Q, A23T, Y27G, K45G, M70I, L89A, P111Y
VL: B1 VL with H34A
notes: as for B1
B16: VH SEQ ID NO 602 / VL SEQ ID NO 494 (antibody, IgG4, V domains shown)
VH: B1 VH with D16Q, A23T, Y27G, K45G, M70I, L89A, P111Y
VL: B1 VL with L29V, E42Q, F83V
notes: as for B1
B17: VH SEQ ID NO 610 / VL SEQ ID NO 310 (antibody, IgG4, V domains shown)
VH: B1 VH with D16Q, A23T, Y27G, S30T, K45G, M70I, L89A, P111Y
VL: B1 VL with L29I, H34A, E42Q
notes: as for B1
B18: VH SEQ ID NO 610 / VL SEQ ID NO 430 (antibody, IgG4, V domains shown)
VH: B1 VH with D16Q, A23T, Y27G, S30T, K45G, M70I, L89A, P111Y
VL: B1 VL with L29V, H34A, E42Q, A84G
notes: as for B1
B19: VH SEQ ID NO 594 / VL SEQ ID NO 478 (antibody, IgG4, V domains shown)
VH: B1 VH
VL: B1 VL with L29V, E42Q, N90Q
notes: as for B1
B20: VH SEQ ID NO 610 / VL SEQ ID NO 390 (antibody, IgG4, V domains shown)
VH: B1 VH with D16Q, A23T, Y27G, S30T, K45G, M70I, L89A, P111Y
VL: B1 VL with L29V, H34A
notes: as for B1
B21: VH SEQ ID NO 602 / VL SEQ ID NO 478 (antibody, IgG4, V domains shown)
VH: B1 VH with D16Q, A23T, Y27G, K45G, M70I, L89A, P111Y
VL: B1 VL with L29V, E42Q, N90Q
notes: as for B1

The assay concerns the target T1, recombinant human activated Factor VII …. The experiment in a line: BLI (Fortebio). In general terms: BLI is a label-free optical method that tracks binding on a fibre tip over time.
As for B1, the Kd was found to be 140 nM.
For B2, the Kd amounted to 480 nM.
Consider B3, for which the Kd was found to be 39 nM.
With B4, the Kd came out at 10 nM.
The figure for B5 is 14 nM; for B6 it is 33 nM.
B7: the Kd is 13 nM.
The figure for B8 is 11 nM.
On to B9, for which the Kd is 9 nM.
On to B10, for which the Kd was 11 nM.
With B11, the Kd stood at 330 nM.
For the molecule B12, the Kd came out at 370 nM.
Turning to B13, the Kd is 10 nM.
The result for B14 reads 43 nM; that for B15, 51 nM; that for B16, 14 nM.
As to B17, the equilibrium dissociation constant (Kd) was determined as 80 nM.
B18: the Kd turned out to be 1500 nM.
Consider B19, for which the Kd came to 200 nM.
Consider B20, for which the Kd amounted to 380 nM.
The figure for B21 is 24 nM.

One may read the Kd as the equilibrium constant for the complex coming apart.
